Results reported in paper PMC10668032, “Altered binding affinity of SIX1-Q177R correlates with enhanced WNT5A and WNT pathway effector expression in Wilms tumor”.

Molecular target: T1, SIX1-Q177R (human, UniProt Q15475 1-284, Q177R)
T1 sequence: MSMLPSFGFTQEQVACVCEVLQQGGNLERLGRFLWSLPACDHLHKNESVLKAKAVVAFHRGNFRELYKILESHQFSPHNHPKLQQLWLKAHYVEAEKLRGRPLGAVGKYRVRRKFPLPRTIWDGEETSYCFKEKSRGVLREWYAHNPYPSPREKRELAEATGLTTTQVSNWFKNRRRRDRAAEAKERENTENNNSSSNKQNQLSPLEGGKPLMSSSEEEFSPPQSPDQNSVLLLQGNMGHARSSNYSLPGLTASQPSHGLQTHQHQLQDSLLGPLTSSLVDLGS
Assay: EMSA; EMSA: Active Motif Gelshift or Thermo LightShift chemiluminescent kit binding buffer, no glycerol, no poly d(I-C), RT 25 min; protein dilutions 1-300 nM; 6% gel in 0.5x TBE; pH and salt not given
Conditions: protein: recombinant; tags: N-terminal HA from pGEX-6p1-N-HA (GST removed with PreScission); label: biotin 3' end (both strands, Pierce 3' end-labeling kit); blunt

B1: WNT5A_promoter_EMSA (dsDNA)
DNA 1: CCCGCCCTAAGTGTCAAATTTCCTCCAGGGGAG
DNA 2: CTCCCCTGGAGGAAATTTGACACTTAGGGCGGG
binding signal: ~10 fold higher affinity than SIX1 on same probe
